Experimental data taken from paper PMC7162832, “An unusual metal-bound 4-fluorothreonine transaldolase from Streptomyces sp. MA37 catalyses promiscuous transaldol reactions” (Applied Microbiology and Biotechnology, 2020).

Assays:
[1] = molecular target: 4-fluorothreonine transaldolase from Streptomyces sp. MA37 (Streptomyces sp. MA37) (UniProt W0W999); assay: SEC; ENrich High-Resolution Size Exclusion Column (Bio-Rad, 25 mL), isocratic elution; oligomeric state estimated from the retention time
FTaseMA [2] = molecular target: T1, FTaseMA (Streptomyces sp. MA37, UniProt W0W903); assay: DNPH derivatisation and HPLC; type: biochemical; design: gene flFT1; full-length (SHMT-like S domain plus aldolase-like A domain), N-His6, from MA37 genomic DNA in pGM1190 (pMBC001), expressed in Streptomyces lividans 66; dimer
FTaseMA [3] = molecular target: T1, FTaseMA; assay: biochemical; design: gene flFT1
From the text: acetaldehyde release, DNPH derivatisation and HPLC on FTaseMA
O=CCCl = assay: purified protein; settings: L-threonine 5 mM, PLP 0.1 mM, Tris-HCl pH 7.5
O=CCc1ccccc1 = assay: purified protein; settings: L-threonine 5 mM, PLP 0.1 mM, Tris-HCl pH 7.5
CC(C)C=O = assay: purified protein; settings: L-threonine 5 mM, PLP 0.1 mM, Tris-HCl pH 7.5
O=CCF = assay: purified protein; settings: apparent, FAd 0.12-2.4 mM, L-threonine 20 mM (methods: 0.5-20 mM aldehyde, 5 mM L-Thr), PLP 0.1 mM, Tris-HCl pH 7.5

## 4-fluorothreonine transaldolase from Streptomyces sp. MA37 (from UniProt W0W999 1-299) (enzyme)
[1]
  stoichiometry N: 2

## O=CCO [compound 9, glycolaldehyde]
FTaseMA [2]
  Km: 357 ± 10 µM

## C[C@@H](O)[C@H](N)C(=O)O [compound 6, L-threonine]
FTaseMA [3]
  Km: 1180 ± 7 µM

## FTaseMA (Streptomyces sp. MA37)
O=CCCl
  Km: 1350 ± 1 µM
  kcat: 0.0238 s⁻¹
  kcat/Km: 17.6 M⁻¹ s⁻¹
O=CCc1ccccc1
  Km: 358 ± 6 µM
  kcat: 0.00975 s⁻¹
  kcat/Km: 27.2 M⁻¹ s⁻¹
CC(C)C=O
  Km: 535 ± 78 µM
  kcat: 0.0135 s⁻¹
  kcat/Km: 25.4 M⁻¹ s⁻¹
O=CCF
  Km: 241 ± 2 µM
  kcat: 0.03 s⁻¹
  kcat/Km: 125 M⁻¹ s⁻¹

## CCC=O [compound 11, propanal]
FTaseMA [2]
  Km: 1450 ± 179 µM

## C[C@H](O)[C@H](N)C(=O)O [compound 19, L-allo-threonine]
FTaseMA [3]
  Km: 1180 ± 6 µM
